Measurements taken from the supplement of paper PMC10567573.

B1: WEE1 (parent)
chain: FLGSSFSPVRCGGPGDASPRGCGA
B2: ZC3H15 (parent)
chain: ENLFTGEDLDELEEELNTLDLEE

Variants of: B1
Test: protein stability index of a GFP-peptide fusion (GPS, HEK-293T) (PSI 1-6); higher = more stable
Settings: c terminus: a fixed tail appended
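Note: lentivirally expressed fusions sorted by FACS into six bins by GFP to DsRed ratio, PSI derived from sequencing read proportions per bin multiplied by bin number.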

Protein stability index: each site, then its substitutions
C11: D 3.3; E 2.39; F 2.19; G 2.34; H 2.1; I 2.12; K 1.91; L 2.22; M 2.4; N 2.53; P 2.44; Q 2.48; R 2.69; S 2.62; T 2.27; V 1.95; W 1.46; Y 2.01
G12: A 1.78; C 2.04; D 1.85; E 2.03; F 1.43; H 3.11; I 1.3; K 2.31; L 2.44; M 1.83; N 2.56; P 2.38; Q 2.07; R 2.1; S 2; T 1.63; V 1.43; W 1.9; Y 2.65
G13: A 1.94; C 2.58; D 1.57; E 1.52; F 1.51; H 1.87; I 2.43; K 2.29; L 2.58; M 1.58; N 2.38; P 2.12; Q 2.98; R 1.87; S 2.29; T 1.55; V 2.05; W 1.56; Y 1.63
P14: A 1.45; C 2.18; D 1.9; E 2.22; F 3.56; G 2.04; H 1.86; I 2.29; K 2.81; L 1.59; M 1.17; N 1.85; Q 2.42; R 2.35; S 2.24; T 1.15; V 1.35; W 1.94; Y 2.42
G15: A 2.45; C 1.25; D 2.06; E 1.59; F 2.6; H 1.76; I 1.82; K 1.93; L 2.68; M 1.88; N 1.77; P 1.75; Q 1.45; R 1.56; S 2.02; T 2.25; V 1.65; W 3.02; Y 2.37
D16: A 1.26; C 2.57; E 1.93; F 2.35; G 1.99; H 2.27; I 1.61; K 1.81; L 1.88; M 2.45; N 1.39; P 1.73; Q 1.86; R 2.06; S 2.09; T 1.57; V 1.91; W 1.74; Y 1.23
A17: C 2.06; D 2.34; E 1.95; F 1.54; G 2.07; H 1.8; I 1.87; K 1.53; L 1.78; M 1.56; N 1.99; P 2.31; Q 1.53; R 2.21; S 1.39; T 1.4; V 1.47; W 2.29; Y 1.95
S18: A 1.71; C 1.86; D 2.16; E 2.15; F 1.86; G 1.98; H 1.83; I 1.75; K 2.07; L 2; M 1.62; N 1.84; P 2.89; Q 1.96; R 1.68; T 1.42; V 2.09; W 2.3; Y 1.65
P19: A 2.78; C 1.98; D 2; E 2.14; F 2.62; G 2; H 1.25; I 1.57; K 1.93; L 2.31; M 1.35; N 2.45; Q 1.57; R 2.38; S 1.8; T 1.88; V 2.23; W 2.52; Y 1.12
R20: A 2.27; D 2.17; E 2.28; G 1.36; H 1.33; I 1.23; K 1.62; L 2.37; M 1.57; N 2; P 2.14; Q 2.12; S 1.55; T 1.8; V 1.79; W 2.19; Y 3.14
G21: A 1.92; C 3.5; D 1.64; E 2.06; F 1.64; H 1.87; I 1.97; K 1.81; L 1.95; M 1.76; N 1.55; P 1.91; Q 2.17; R 1.96; S 1.67; T 2.08; V 1.74; W 1.38; Y 1.69
C22: A 1.88; D 1.61; E 1.95; F 2.48; G 2.13; H 2.94; I 1.58; K 2.17; L 1.75; M 1.87; N 1.8; P 1.59; Q 1.73; R 2.27; S 2.73; T 2.47; V 1.73; W 2.96; Y 2.1
G23: A 2.4; C 2.64; D 2.22; E 1.75; F 2.37; H 3.02; I 2.35; K 1.71; L 1.09; M 1.63; N 1.66; P 2.06; Q 1.73; R 1.79; S 1.82; T 1.7; V 1.73; Y 1.4
A24: C 2.6; D 2.27; E 1.88; F 2.42; G 1.75; H 1.52; I 1.42; K 2.17; L 1.82; M 1.02; N 2.28; P 1.58; Q 1.52; R 1.98; S 1.58; T 2.01; V 1.6; W 1.37; Y 1.75

Variants of: B2
Test: as above
Settings: c terminus: native

Protein stability index of substitutions, site by site:
E1: A 4.26; C 3.8; D 4.19; F 3.23; H 3.66; I 3.24; K 3.59; L 4.16; M 3.76; N 4.12; P 4.12; Q 4.14; S 4.42; T 4.11; V 4.25; W 2.89; Y 3.58
N2: C 4.28; E 4.39; H 4; I 3.61; K 3.49; M 4.08; P 4.24; Q 4.71; R 4.94; S 4.6; T 4.23; V 4.17; W 3.12; Y 4.78
L3: A 4.1; C 3.83; D 5.09; E 4.08; G 4.81; H 4.39; I 4.57; K 4.06; M 5.09; N 4.8; P 4.65; Q 4.62; R 4.71; S 5.2; T 4.71; V 4.6; W 3.55; Y 3.6
F4: A 4.68; C 5.49; D 5.08; E 4.31; G 4.83; H 4.55; I 5.19; K 3.66; L 4.58; M 4.5; N 4.74; P 5.03; Q 4.69; R 4.67; S 5.13; V 3.57; W 4.5; Y 4.6
T5: C 5.08; E 4.65; F 4.19; G 4.5; H 4.56
